Assay results: patent US7232659 (dated 2007)
No end group written: not given here. *: point of attachment. For = O=C*

T1: formyl peptide receptor with a C-terminal hexahistidine tag (FPR:C-H6) (human, UniProt P21462 1-350)
T1 construct: Solubilized from membranes and captured on dextran chelate nickel (DCNi) beads; also called C-H6:FPR
T1 sequence: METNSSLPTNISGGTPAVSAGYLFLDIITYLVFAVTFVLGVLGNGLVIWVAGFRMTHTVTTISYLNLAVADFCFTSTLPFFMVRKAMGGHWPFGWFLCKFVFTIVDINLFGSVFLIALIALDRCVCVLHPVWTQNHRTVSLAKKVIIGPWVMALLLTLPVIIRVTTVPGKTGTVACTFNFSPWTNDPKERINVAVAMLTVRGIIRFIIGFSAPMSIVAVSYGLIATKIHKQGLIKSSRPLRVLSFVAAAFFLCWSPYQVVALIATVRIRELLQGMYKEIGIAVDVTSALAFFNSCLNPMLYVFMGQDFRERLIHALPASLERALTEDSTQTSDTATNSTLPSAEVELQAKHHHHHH

B1: formyl peptide receptor (FPR), wild type, detergent-solubilized (receptor, human, UniProt P21462 1-350, looked up)
chain: METNSSLPTNISGGTPAVSAGYLFLDIITYLVFAVTFVLGVLGNGLVIWVAGFRMTHTVTTISYLNLAVADFCFTSTLPFFMVRKAMGGHWPFGWFLCKFVFTIVDINLFGSVFLIALIALDRCVCVLHPVWTQNHRTVSLAKKVIIGPWVMALLLTLPVIIRVTTVPGKTGTVACTFNFSPWTNDPKERINVAVAMLTVRGIIRFIIGFSAPMSIVAVSYGLIATKIHKQGLIKSSRPLRVLSFVAAAFFLCWSPYQVVALIATVRIRELLQGMYKEIGIAVDVTSALAFFNSCLNPMLYVFMGQDFRERLIHALPASLERALTEDSTQTSDTATNSTLPSAEVELQAK
notes: Used as a crude dodecyl maltoside extract of U937 membranes, not purified; In ternary complex assays it is occupied by the fluorescent ligand L^F; also called wild type receptor; soluble FPR
B2: fMLFFGGK (peptide)
peptide: For-MLFFGGK
notes: Synthesized by Commonwealth Biotechnologies; also called non-fluorescent ligand
B3: FPR-GFP fusion protein (receptor)
chain: not shown
notes: also called R^F; receptor-GFP fusion protein
B4: formyl-MLFK-FITC (peptide)
peptide: For-MLFK
modifications: also: FITC conjugate, site not given here
notes: all other places print fMLFK-FITC; also called fMLFK-FITC; fluorescent ligand
B5: FPR-Giα2 fusion protein (receptor, human;rat)
chain: METNSSLPTNISGGTPAVSAGYLFLDIITYLVFAVTFVLGVLGNGLVIWVAGFRMTHTVTTISYLNLAVADFCFTSTLPFFMVRKAMGGHWPFGWFLCKFVFTIVDINLFGSVFLIALIALDRCVCVLHPVWTQNHRTVSLAKKVIIGPWVMALLLTLPVIIRVTTVPGKTGTVACTFNFSPWTNDPKERINVAVAMLTVRGIIRFIIGFSAPMSIVAVSYGLIATKIHKQGLIKSSRPLRVLSFVAAAFFLCWSPYQVVALIATVRIRELLQGMYKEIGIAVDVTSALAFFNSCLNPMLYVFMGQDFRERLIHALPASLERALTEDSTQTSDTATNSTLPSAEVELQAKAAAMGCTVSAEDKAAAERSKMIDKNLREDGEKAAREVKLLLLGAGESGKSTIVKQMKIIHEDGYSEEECRQYRAVVYSNTIQSIMAIVKAMGNLQIDFADPQRADDARQLFALSCAAEEQGMLPEDLSGVIRRLWADHGVQACFGRSREYQLNDSAAYYLNDLERIAQSDYIPTQQDVLRTRVKTTGIVETHFTFKDLHFKMFDVGGQRSERKKWIHCFEGVTAIIFCVALSAYDLVLAEDEEMNRMHESMKLFDSICNNKWFTDTSIILFLNKKDLFEEKITQSPLTICFPEYTGANKYDEAASYIQSKFEDLNKRKDTKEIYTHFTCATDTKNVQFVFDAVTDVIIKNNLKDCGLF
notes: Solubilized from membranes; in the assays occupied by L^F (fMLFK-FITC), which gives the signal; also called FPR-αi2; FPR-Gαi2

Columns and labels:
[1] = biological target: T2, G protein heterotrimer αi3β1H6γ2 (human, UniProt P62873 2-340; P59768 2-68); assay: flow cytometry, L^FRG assembly on αi3β1H6γ2 DCNi beads, more nearly optimal conditions
[2] = biological target: T3, β1H6γ2 dimer (human, UniProt P62873 2-340; P59768 2-68); assay: flow cytometry of DCNi beads coated with βγ, 60 nM FPR and 75 nM L^F, with 0.1 mM GTPγS only background fluorescence
T3 construct: Purified from Sf9 cells and held on DCNi beads by the hexahistidine tag; also called βγ; Gβγ
Method: (§1) Each mixture was mixed by pipetting to ensure a uniform starting suspension of the beads in 96 V-well plates (Costar), and then mixed at low speed on a vortex mixer at 7° for two hours. The 10 μl assays were individually brought to 200 μl with 0.1% dodecyl maltoside in buffer A in 12×75 mm tubes for flow cytometric measurement of fluorescence of the beads. LRG assembly was defined as the difference between fluorescence without GTPγS and that with GTPγS. All determinations were done in duplicate.
(§2) The 10 μl assay was then diluted to 200 μl for spectrofluorimetric measurement. […] Uncoated beads were used in an assembly assay, bar 1, or were coated with G protein βγ only and used in an assembly assay, bar 2.

[3] = biological target: T2, G protein heterotrimer αi3β1H6γ2; assay: flow cytometry, αi3β1H6γ2 on DCNi beads, 60 nM FPR with 75 nM L^F; uncoated beads about 9,000 fluorophores
Method: as §1, §2

[4] = biological target: B3; assay: flow cytometry, LR^FG assembly on αβγ DCNi beads, L varied; receptor depletes the ligand, so the filing says that the affinity of L for R^F is not revealed (FIG. 12C)
Method: as §1, with “Standard LRG Assembly Assay. […] Each” for “Each”

[5] = biological target: T2, G protein heterotrimer αi3β1H6γ2; assay: flow cytometry, LR^FG assembly on αβγ DCNi beads, FPR-GFP varied with saturating fMLFFGGK; binding nearly linear over the range (FIG. 12D)
[6] = biological target: T2, G protein heterotrimer αi3β1H6γ2; assay: flow cytometry, LR^FG assembly on αβγ DCNi beads against GTPγS background
Method: as §1

[7] = biological target: B1; assay: spectrofluorimetry, solubilized FPR, free ligand quenched with anti-FITC antibody, ligand-binding curve of FIG. 8B
Method: Fluorescence was measured with an SLM 8000 spectrofluorimeter (SLM Instruments, Inc.) using the photon counting mode. The sample holder was fitted with a cylindrical cuvette adapter, which allowed the use of 200 µl samples in 7 mm×45 mm cylindrical cuvettes (Sienco; Wheat Ridge, Colo.), stirred with 2×5 mm stir bars (Bel-Art). […] Emission was monitored using a 520+/−10 nm filter (Corion) and a 500 nm long-pass filter (Kopp; Pittsburg, Pa.). Additions to samples during kinetic measurements were made through an injection port on the top of the sample holder with 10 µl glass syringes (Hamilton; Reno, Nev.).

[8] = biological target: T1, formyl peptide receptor with a …; assay: flow cytometry, hexahistidine-tagged FPR on DCNi beads, L^F titrated (FIG. 9E)
Method: The initial bead fluorescence was measured for twenty seconds, then an anti-FITC antibody was mixed with the beads, and the decrease in bead fluorescence was measured for another 100 seconds. The line shown is a best fit to a plateau, followed by an exponential decrease to the bottom.

[9] = biological target: T3, β1H6γ2 dimer; assay: flow cytometry, β1H6γ2 on DCNi beads, 1 µM GTP against GTPγS background
Method: as §1

T2 sequence (P62873 2-340, chain 1 of 2): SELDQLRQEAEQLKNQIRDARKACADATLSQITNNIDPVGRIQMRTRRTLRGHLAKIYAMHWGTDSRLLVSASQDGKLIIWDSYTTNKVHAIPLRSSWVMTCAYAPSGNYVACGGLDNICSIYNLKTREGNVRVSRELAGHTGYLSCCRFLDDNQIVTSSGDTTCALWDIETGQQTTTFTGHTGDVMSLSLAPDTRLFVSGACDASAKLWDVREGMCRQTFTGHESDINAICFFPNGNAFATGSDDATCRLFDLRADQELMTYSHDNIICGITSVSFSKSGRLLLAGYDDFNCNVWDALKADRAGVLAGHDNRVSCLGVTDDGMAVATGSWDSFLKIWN
T2 sequence (P59768 other isoform, or with tags, fused parts or gaps, chain 2 of 2): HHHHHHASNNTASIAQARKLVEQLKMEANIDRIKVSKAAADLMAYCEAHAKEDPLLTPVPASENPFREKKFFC
T3 sequence (P62873 2-340, chain 1 of 2): as the sequence (P62873 2-340, chain 1 of 2) above
T3 sequence (P59768 other isoform, or with tags, fused parts or gaps, chain 2 of 2): as the sequence (P59768 other isoform, or with tags, fused parts or gaps, chain 2 of 2) above

B1
signal to background [1]: ≤ 4 ratio
binding result [2]: no binding
bead fluorescence against uncoated beads [3]: 3 fold

B2
EC50 [4]: 115 nM

B3
Kd [5]: 1000 nM
total binding to background ratio [6]: 4.9 ratio

B4
Kd [7]: 4.8 nM
Kd [8]: ~8 nM

B5
total fluorescence to background ratio [9]: 2.7 ratio
